B1: Flag-tagged FBP1 (other, not shown: small tags and cut ends)
chain: MDPAEAVLQEKALKFMNSSEREDCNNGEPPRKIIPEKNSLRQTYNSCARLCLNQETVCLASTAMKTENCVAKTKLANGTSSMIVPKQRKLSASYEKEKELCVKYFEQWSESDQVEFVEHLISQMCHYQHGHINSYLKPMLQRDFITALPARGLDHIAENILSYLDAKSLCAAELVCKEWYRVTSDGMLWKKLIERMVRTDSLWRGLAERRGWGQYLFKNKPPDGNAPPNSFYRALYPKIIQDIETIESNWRCGRHSLQRIHCRSETSKGVYCLQYDDQKIVSGLRDNTIKIWDKNTLECKRILTGHTGSVLCLQYDERVIITGSSDSTVRVWDVNTGEMLNTLIHHCEAVLHLRFNNGMMVTCSKDRSIAVWDMASPTDITLRRVLVGHRAAVNVVDFDDKYIVSASGDRTIKVWNTSTCEFVRTLNGHKRGIACLQYRDRLVVSGSSDNTIRLWDIECGACLRVLEGHEELVRCIRFDNKRIVSGAYDGKIKVWDLVAALDPRAPAGTLCLRTLVEHSGRVFRLQFDEFQIVSSSHDDTILIWDFLNDPAAQAEPPRSPSRTYTYISR
notes: Flag tag at the C-terminus in the pcDNA3 constructs (HeLa, 293 cells); also called Flag-FBP1
B2: Flag-tagged FBP2 (other, not shown: small tags and cut ends)
chain: MERKDFETWLDNISVTFLSLTDLQKNETLDHLISLSGAVQLRHLSNNLETLLKRDFLKLLPLELSFYLLKWLDPQTLLTCCLVSKQWNKVISACTEVWQTACKNLGWQIDDSVQDALHWKKVYLKAILRMKQLEDHEAFETSSLIGHSARVYALYYKDGLLCTGSDDLSAKLWDVSTGQCVYGIQTHTCAAVKFDEQKLVTGSFDNTVACWEWSSGARTQHFRGHTGAVFSVDYNDELDILVSGSADFTVKVWALSAGTCLNTLTGHTEWVTKVVLQKCKVKSLLHSPGDYILLSADKYEIKIWPIGREINCKCLKTLSVSEDRSICLQPRLHFDGKYIVCSSALGLYQWDFASYDILRVIKTPEIANLALLGFGDIFALLFDNRYLYIMDLRTESLISRWPLPEYRESKRGSSFLAGEHPG
notes: pcDNA3 construct, Flag tag at the C-terminus
B3: Flag-tagged FBP3a (other, not shown: small tags and cut ends)
chain: MKRGGRDSDRNSSEEGTAEKSKKLRTTNEHSQTCDWGNLLQDIILQVFKYLPLLDRAHASQVCRNWNQVFHMPDLWRCFEFELNQPATSYLKATHPELIKQIIKRHSNHLQYVSFKVDSSKESAEAACDILSQLVNCSLKTLGLISTARPSFMDLPKSHFISALTVVFVNSKSLSSLKIDDTPVDDPSLKVLVANNSDTLKLLKMSSCPHVSPAGILCVADQCHGLRELALNYHLLSDELLLALSSEKHVRLEHLRIDVVSENPGQTHFHTIQKSSWDAFIRHSPKVNLVMYFFLYEEEFDPFFRYEIPATHLYFGRSVSKDVLGRVGMTCPRLVELVVCANGLRPLDEELIRIAERCKNLSAIGLGECEVSCSAFVEFVKMCGGRLSQLSIMEEVLIPDQKYSLEQIHWEVSKHLGRVWFPDMMPTW
notes: as for B2
B4: Flag-tagged FBP4 (other, not shown: small tags and cut ends)
chain: MAGSEPRSGTNSPPPPFSDWGRLEAAILSGWKTFWQSVSKDRVARTTSREEVDEAASTLTRLPIDVQLYILSFLSPHDLCQLGSTNHYWNETVRNPILWRYFLLRDLPSWSSVDWKSLPYLQILKKPISEVSDGAFFDYMAVYLMCCPYTRRASKSSRPMYGAVTSFLHSLIIPNEPRFALFGPRLEQLNTSLVLSLLSSEELCPTAGLPQRQIDGIGSGVNFQLNNQHKFNILILYSTTRKERDRAREEHTSAVNKMFSRHNEGDDRPGSRYSVIPQIQKLCEVVDGFIYVANAEAHKRHEWQDEFSHIMAMTDPAFGSSGRPLLVLSCISQGDVKRMPCFYLAHELHLNLLNHPWLVQDTEAETLTGFLNGIEWILEEVESKRAR
notes: as for B2
B5: Flag-tagged FBP7 (other, not shown: small tags and cut ends)
chain: MSNTRFTITLNYKDPLTGDEETLASYGIVSGDLICLILHDDIPPPNIPSSTDSEHSSLQNNEQPSLATSSNQTSIQDEQPSDSFQGQAAQSGVWNDDSMLGPSQNFEAESIQDNAHMAEGTGFYPSEPLLCSESVEGQVPHSLETLYQSADCSDANDALIVLIHLLMLESGYIPQGTEAKALSLPEKWKLSGVYKLQYMHHLCEGSSATLTCVPLGNLIVVNATLKINNEIRSVKRLQLLPESFICKEKLGENVANIYKDLQKLSRLFKDQLVYPLLAFTRQALNLPNVFGLVVLPLELKLRIFRLLDVRSVLSLSAVCRDLFTASNDPLLWRFLYLRDFRDNTVRVQDTDWKELYRKRHIQRKESPKGRFVLLLPSSTHTIPFYPNPLHPRPFPSSRLPPGIIGGEYDQRPTLPYVGDPISSLIPGPGETPSQLPPLRPRFDPVGPLPGPNPILPGRGGPNDRFPFRPSRGRPTDGRLSFM
notes: Expressed in HeLa cells
B6: Flag-tagged (ΔF)FBP1 (other, not shown: small tags and cut ends)
chain: MDPAEAVLQEKALKFMNSSEREDCNNGEPPRYRVTSDGMLWKKLIERMVRTDSLWRGLAERRGWGQYLFKNKPPDGNAPPNSFYRALYPKIIQDIETIESNWRCGRHSLQRIHCRSETSKGVYCLQYDDQKIVSGLRDNTIKIWDKNTLECKRILTGHTGSVLCLQYDERVIITGSSDSTVRVWDVNTGEMLNTLIHHCEAVLHLRFNNGMMVTCSKDRSIAVWDMASPTDITLRRVLVGHRAAVNVVDFDDKYIVSASGDRTIKVWNTSTCEFVRTLNGHKRGIACLQYRDRLVVSGSSDNTIRLWDIECGACLRVLEGHEELVRCIRFDNKRIVSGAYDGKIKVWDLVAALDPRAPAGTLCLRTLVEHSGRVFRLQFDEFQIVSSSHDDTILIWDFLNDPAAQAEPPRSPSRTYTYISR
notes: pcDNA3 construct, Flag tag at the C-terminus; also called Flag-tagged (deltaF)FBP1
B7: Flag-tagged (ΔF)FBP2 (other, not shown: small tags and cut ends)
chain: MERKDFETWLDNISVTFLSLTDLQKNETLDHLISLSGAVQLRHLSNNLETLLKRDFLKLCKNLGWQIDDSVQDALHWKKVYLKAILRMKQLEDHEAFETSSLIGHSARVYALYYKDGLLCTGSDDLSAKLWDVSTGQCVYGIQTHTCAAVKFDEQKLVTGSFDNTVACWEWSSGARTQHFRGHTGAVFSVDYNDELDILVSGSADFTVKVWALSAGTCLNTLTGHTEWVTKVVLQKCKVKSLLHSPGDYILLSADKYEIKIWPIGREINCKCLKTLSVSEDRSICLQPRLHFDGKYIVCSSALGLYQWDFASYDILRVIKTPEIANLALLGFGDIFALLFDNRYLYIMDLRTESLISRWPLPEYRESKRGSSFLAGEHPG
notes: pcDNA3 construct, Flag tag at the C-terminus; also called Flag-tagged (deltaF)FBP2
B8: human F-box protein FBP1 (other)
chain: B1 chain
B9: human F-box protein FBP2 (other)
chain: B2 chain
B10: human F-box protein FBP3a (other)
chain: B3 chain
B11: human F-box protein FBP5 (other)
chain: MSRRPCSCALRPPRCSCSASPSAVTAAGRPRPSDSCKEESSTLSVKMKCDFNCNHVHSGLKLVKPDDIGRLVSYTPAYLEGSCKDCIKDYERLSCIGSPIVSPRIVQLETESKRLHNKENQHVQQTLNSTNEIEALETSRLYEDSGYSSFSLQSGLSEHEEGSLLEENFGDSLQSCLLQIQSPDQYPNKNLLPVLHFEKVVCSTLKKNAKRNPKVDREMLKEIIARGNFRLQNIIGRKMGLECVDILSELFRRGLRHVLATILAQLSDMDLINVSKVSTTWKKILEDDKGAFQLYSKAIQRVTENNNKFSPHASTREYVMFRTPLASVQKSAAQTSLKKDAQTKLSNQGDQKGSTYSRHNEFSEVAKTLKKNESLKACIRCNSPAKYDCYLQRATCKREGCGFDYCTKCLCNYHTTKDCSDGKLLKASCKIGPLPGTKKSKKNLRRL
notes: Gal4 AD fusion in the two-hybrid screen; the clone appeared to be full length

Target: human Cul2 (endogenous) (human, UniProt Q13617 1-745, limits assumed)
Assay: anti-Flag co-immunoprecipitation from transfected HeLa cells, anti-Cul2 immunoblot
Text: (§1) HeLa cells were transfected with mammalian expression plasmids encoding Flag-tagged versions of FBP1 (lane 1), (ΔF)FBP1 (lane 2), FBP4 (lane 3), FBP7 (lane 5), FBP2 (lane 7), (ΔF)FBP2 (lane 8), FBP3a (lane 9), (ΔF)FBP3a (lane 10), or with an empty vector (lanes 4 and 6). Cells were lysed and extracts were subjected to immunoprecipitation with a rabbit anti-Flag antibody (lanes 1-8). Immunoprecipitates were then immunoblotted with a mouse anti-Cul1 monoclonal antibody, a rabbit anti-Skp1 polyclonal antibody or a rabbit anti-Cul2 polyclonal antibody, as indicated. The last lane contains 25 μg of extracts from non-transfected HeLa cells; […] contains recombinant Cul1, Skp1, or Cul2 proteins used as markers.

Sequence of human Cul2 (endogenous) (Q13617 whole entry): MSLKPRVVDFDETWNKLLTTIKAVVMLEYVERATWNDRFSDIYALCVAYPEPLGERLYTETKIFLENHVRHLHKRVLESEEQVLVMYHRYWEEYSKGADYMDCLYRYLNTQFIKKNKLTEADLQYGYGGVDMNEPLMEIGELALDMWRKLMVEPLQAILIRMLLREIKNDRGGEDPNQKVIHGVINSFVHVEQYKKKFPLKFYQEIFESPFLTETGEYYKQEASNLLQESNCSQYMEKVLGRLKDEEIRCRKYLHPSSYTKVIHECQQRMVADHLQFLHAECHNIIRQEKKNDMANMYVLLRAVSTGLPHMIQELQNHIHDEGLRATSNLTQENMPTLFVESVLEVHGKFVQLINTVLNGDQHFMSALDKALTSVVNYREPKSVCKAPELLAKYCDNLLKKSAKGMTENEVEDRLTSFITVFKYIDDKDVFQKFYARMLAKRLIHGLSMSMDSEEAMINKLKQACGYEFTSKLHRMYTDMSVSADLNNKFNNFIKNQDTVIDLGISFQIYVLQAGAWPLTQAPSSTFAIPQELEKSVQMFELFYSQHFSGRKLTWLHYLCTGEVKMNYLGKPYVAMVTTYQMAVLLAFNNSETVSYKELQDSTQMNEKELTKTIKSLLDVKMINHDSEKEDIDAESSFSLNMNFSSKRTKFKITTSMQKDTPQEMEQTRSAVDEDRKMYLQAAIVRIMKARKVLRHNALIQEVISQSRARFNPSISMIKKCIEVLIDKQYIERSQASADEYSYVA

Binding result, no binding:
B1
B2
B3
B4
B5

Target: T1, human Cul1 (endogenous) (human, UniProt Q13616 1-776)
T1 construct: A slower migrating form is said to be likely modified by a ubiquitin-like molecule
Assay: anti-Flag co-immunoprecipitation from transfected HeLa cells, anti-Cul1 immunoblot
Text: as §1

T1 sequence (Q13616 whole entry): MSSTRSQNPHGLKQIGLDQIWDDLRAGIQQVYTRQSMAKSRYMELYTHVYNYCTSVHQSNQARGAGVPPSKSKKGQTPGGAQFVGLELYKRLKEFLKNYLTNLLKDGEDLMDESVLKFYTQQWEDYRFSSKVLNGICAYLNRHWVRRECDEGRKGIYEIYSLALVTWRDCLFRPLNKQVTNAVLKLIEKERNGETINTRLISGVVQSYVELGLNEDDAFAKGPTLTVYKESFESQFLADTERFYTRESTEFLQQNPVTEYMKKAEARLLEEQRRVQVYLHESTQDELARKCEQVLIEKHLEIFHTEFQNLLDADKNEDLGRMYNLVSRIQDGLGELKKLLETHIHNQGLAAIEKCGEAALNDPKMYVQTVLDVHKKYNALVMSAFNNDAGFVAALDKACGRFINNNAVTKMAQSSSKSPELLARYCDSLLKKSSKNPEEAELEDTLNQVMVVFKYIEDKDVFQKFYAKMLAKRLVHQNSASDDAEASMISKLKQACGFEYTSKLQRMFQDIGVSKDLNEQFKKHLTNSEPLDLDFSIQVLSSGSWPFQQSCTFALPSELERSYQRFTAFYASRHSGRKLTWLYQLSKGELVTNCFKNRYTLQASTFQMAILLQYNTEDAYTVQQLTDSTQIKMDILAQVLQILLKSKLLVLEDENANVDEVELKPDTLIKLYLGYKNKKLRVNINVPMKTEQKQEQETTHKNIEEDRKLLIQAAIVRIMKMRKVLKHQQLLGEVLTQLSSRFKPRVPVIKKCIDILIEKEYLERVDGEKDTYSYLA

Binding result, no binding:
B6
B7

Target: His-tagged Elongin C (human, UniProt Q15369 1-112)
Assay: pull-down of in vitro translated 35S-FBP on His-Elongin C Nickel-agarose beads
Description: FIG. 29. FBPs interact specifically with Skp1 through their F-box. The cDNAs of FBPs (wild type and mutants) were transcribed and translated in vitro (IVT) in the presence of 35S- methionine. […] Bound IVT proteins were analyzed by SDS-PAGE and autoradiography. The arrows on the left side of the panels point to the indicated FBPs. The apparent molecular weights of the protein standards are indicated on the right side of the panels.
As examples of the human FBP family, a more detailed characterization of some FBPs was performed. To confirm the specificity of interaction between the novel FBPs and human Skp1, eight in vitro translated FBPs were tested for binding to His-tagged-Skp1 pre-bound to Nickel-agarose beads. As a control Elongin C was used, the only known human Skp1 homolog.

Sequence of His-tagged Elongin C (Q15369 whole entry): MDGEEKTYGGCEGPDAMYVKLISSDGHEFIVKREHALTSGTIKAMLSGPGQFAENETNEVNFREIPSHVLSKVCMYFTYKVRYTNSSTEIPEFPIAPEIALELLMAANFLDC

Binding result, no binding:
B8
B9
B10
B11

— patent US20020123082A1 (NEW YORK UNIVERSITY, published 2002)
